Results from patent publication US8349320.
pKd: −log10 of the molar value.

Legend:
[1] = target: mouse HVEM expressed on cells (mouse) (UniProt Q80WM9); experiment: flow cytometry competition, graded soluble gD against 1.4 µg/ml mBTLA-T on mHVEM-HEK293 cells (FIG. 3G)
[2] = target: mouse HVEM-Fc (mouse; human) (UniProt Q80WM9); experiment: flow cytometry competition, graded soluble gD against 2 µg/ml mHVEM:Fc on hLIGHT-EL4 cells (FIG. 3G)
Sequence of mouse HVEM-Fc (mouse; human) (Q80WM9 39-206 limits assumed): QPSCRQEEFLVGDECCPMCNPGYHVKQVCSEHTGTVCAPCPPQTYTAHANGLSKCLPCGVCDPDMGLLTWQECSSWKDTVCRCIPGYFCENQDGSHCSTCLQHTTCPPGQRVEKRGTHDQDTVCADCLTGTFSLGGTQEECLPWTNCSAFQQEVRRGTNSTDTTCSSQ

Sequence of mouse HVEM expressed on cells (mouse) (Q80WM9 39-275): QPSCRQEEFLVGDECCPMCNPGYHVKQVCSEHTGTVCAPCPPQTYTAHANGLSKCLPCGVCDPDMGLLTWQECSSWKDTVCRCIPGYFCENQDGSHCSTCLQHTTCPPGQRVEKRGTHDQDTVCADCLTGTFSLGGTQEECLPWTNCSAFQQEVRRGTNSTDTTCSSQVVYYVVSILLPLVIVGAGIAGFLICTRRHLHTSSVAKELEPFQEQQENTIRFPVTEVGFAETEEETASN

## purified recombinant soluble gD (gD-1Δ290-299)
[1]
  pKd: 6.60
[2]
  pKd: 6.60
